Assay results published in patent publication US11712410 (K18, dated 2023).
No end group written: not given here.

T1: Hair Keratin KRTHB1 Basic (UniProt Q14533 304-505, limits assumed)
T1 construct: The keratin was printed onto a bare gold SPRi chip; also called natural hair keratin
T1 sequence (looked up): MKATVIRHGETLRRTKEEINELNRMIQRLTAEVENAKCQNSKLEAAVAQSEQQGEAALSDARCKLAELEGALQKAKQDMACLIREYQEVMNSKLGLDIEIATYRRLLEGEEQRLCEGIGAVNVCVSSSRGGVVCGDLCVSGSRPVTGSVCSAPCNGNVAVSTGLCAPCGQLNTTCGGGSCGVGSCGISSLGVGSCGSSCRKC


Key:
[1] = molecular target: T1, Hair Keratin KRTHB1 Basic; test: SPRi (PlexArray HT), keratin printed on the gold chip, peptide injected; kinetic fit with BIAevaluation 4.1; five curves labelled 5.68 to 91.2 nM
Procedure: (§1) Various concentrations of Keratin dissolved in water were manually printed onto the bare gold coated (thickness 47 nm) PlexArray Nanocapture Sensor Chip (Plexera Bioscience, Seattle, Wash., US) at 40% humidity. Each concentration was printed in replicate, and each spot contained 0.2 uL of […] solution. The chip was incubated in 80% humidity at 4° C. for overnight, and rinsed with 10×PBST for 10 min, 1×PBST for 10 min, and deionized water twice for 10 min. The chip was then blocked with 5% (w/v) non-fat milk in water overnight, and washed with 10×PBST for 10 min, 1×PBST for 10 min, and deionized water twice for 10 min before being dried under a stream of nitrogen prior to use. SPRi measurements were performed with PlexAray HT (Plexera Bioscience, Seattle, Wash., US). Collimated light (660 nm) passes through the coupling prism, reflects off the SPR-active gold surface, and is received the CCD camera. Buffers and samples were injected by a non-pulsatile piston pump into the 30 uL flowcell that was mounted on the coupling prim. Each measurement cycle contained four steps: washing with PBST running buffer at a constant rate of 2 uL/s to obtain a stable baseline, sample injection at 5 uL/s for binding, surface washing with PBST at 2 uL/s for 300 s, and regeneration with 0.5% (v/v) H3PO4 at 2 uL/s for 300 s. All the measurements were performed at 4° C. The signal changes after binding and washing (in AU) are recorded as the assay value. Selected protein-grafted regions in the SPR images were analyzed, and the average reflectivity variations of the chosen areas were plotted as a function of time. Real-time binding signals were recorded and analyzed by Data Analysis Module (DAM, Plexera Bioscience, Seattle, Wash., US). Kinetic analysis was performed using BIAevaluation 4.1 software (Biacore, Inc.).

[2] = molecular target: T1, Hair Keratin KRTHB1 Basic; test: SPRi (PlexArray HT), rank among the three peptides tested on keratin
Procedure: as §1

[3] = molecular target: T1, Hair Keratin KRTHB1 Basic; test: SPRi (PlexArray HT), keratin printed on gold chip, peptide injected, 4 C
Procedure: as §1

koff [1] [s⁻¹] | kon [1] [M⁻¹ s⁻¹] | Affinity Ranking [2] | Kd [3] [nM] | Binder
0.0206 | 8240 | 3 | 2500 | CTPPSCCQLHHA (also called Aquis peptide 2; Peptide Aquis 2) [Aquis Pep 2]
0.000478 | 1310 | 1 | 365 | FCGFPSCSTSG (also called Aquis peptide 1; Peptide Aquis 1) [Aquis Pep1]
0.00692 | 8500 | 2 | 814 | GGVCGPSPPCITT (not fully specified; cysteine pairing not given here, Control peptide developed by Khairpep; also called KP peptide; third peptide) [KP]
